The values that follow come from paper doi:10.1101/2023.07.27.550818 (bioRxiv, 2023).

The series deals with the molecule itself. In words: crystal structure.

B1: PcaR (natural protein, P. putida, UniProt Q52154 1-291, looked up)
chain: MSDETLVNDPVNPEPARPASAAMAPPIVASPAKRIQAFTGDPDFMTSLARGLAVIQAFQERKRHLTIAQISHRTEIPRAAVRRCLHTLIKLGYATSDGRTYSLLPKVLTLGHAYLSSTPLAISAQPYLDRISDQLHEAANMATLEGDDILYIARSATVERLISVDLSVGGRLPAYCTSMGRILLAAMDDTSLREYLGRADLKARTSRTLHDPESLFACIQQVRAQGWCVVDQELEQGLRSIAVPIYDASGQVLAALNVSTHVGRVTRSELEQRFLPILLAASRDLCHQLFG
B1: the binding result is on record as “binds”.
